This note sets out measurements from US20240101668A1 (WUGEN, published 2024).

T1: huCLL1-Q244-Avi-Tev-His (human, UniProt Q5QGZ9 65-265)
T1 construct: extracellular domain; also called CLL-1 K244Q
T1 sequence (looked up): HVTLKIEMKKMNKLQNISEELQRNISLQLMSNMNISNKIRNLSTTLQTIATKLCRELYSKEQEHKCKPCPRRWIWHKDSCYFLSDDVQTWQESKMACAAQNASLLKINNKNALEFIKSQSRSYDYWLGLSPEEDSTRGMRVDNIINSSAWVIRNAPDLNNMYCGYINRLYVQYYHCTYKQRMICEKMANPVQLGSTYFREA

T2: huCLL1-K244-Avi-Tev-His (human, UniProt Q5QGZ9 65-265)
T2 construct: extracellular domain
T2 sequence (looked up): T1 sequence (looked up) with Q180K

B1: Polypeptide No. 58 (scFv, V domains shown)
VH: QVQLVQSGAEVKKPGASVKVSCKASGYTFTDYYLHWVRQAPGQGLEWMGWMNPNSGNTGYAQKFQGRVTMTRDTSTSTVYMELSSLRSEDTAVYYCAADVITAYGMDVWGQGTMVTVSS
VL: DIQMTQSPSSLSASVGDRVTITCRASQGISNYLAWYQQKPGKAPKLLIYDASNLETGVPSRFSGSGSGTDFTLTISSLQPEDFATYYCQQSYNVPPTFGQGTKVEIKR
notes: scFv
B2: Polypeptide No. 59 (scFv, V domains shown)
VH: EVQLLESGGGLVQPGGSLRLSCAASGFTFSNAWMSWVRQAPGKGLEWVADISYDGTNDYYADSVKGRFTISRDNSKNTLYLQMNSLRAEDTAVYYCTTEELRFGGFDYWGQGTLVTVSS
VL: B1 VL with G28S, N31S, A34N, S91A, Y92N, N93S, V94F, P96L
notes: scFv
B3: Polypeptide No. 76 (scFv, V domains shown)
VH: QVQLVQSGAEVKKPGASVKVSCKASGYTFTTYYMHWVRQAPGQGLEWMGIINVSAGTTSYAQKFQGRVTMTRDTSTSTVYMELSSLRSEDTAVYYCAKEPYPHQSGWFFDYWGQGTLVTVSS
VL: B1 VL with R24Q, G28D, S30N, A34N, S91A, Y92N, N93S, V94F, P96L, Q100G
notes: scFv
B4: Polypeptide No. 66 (scFv, V domains shown)
VH: QVQLVQSGAEVKKPGASVKVSCKASGYTFNTYYMHWVRQAPGQGLEWMGWMHPNTGNTGYAQKFQGRVTMTRDTSTSTVYMELSSLRSEDTAVYYCARGTTSDAFDIWGQGTMVTVSS
VL: B1 VL with G28S, S30F, N31S, A34N, D50S, E55Q, T56S, N93S, V94T, P96I
notes: scFv
B5: Polypeptide No. 62 (scFv, V domains shown)
VH: QVQLVQSGAEVKKPGASVKVSCKASGYTFTDHFVHWVRQAPGQGLEWMGWISAYNGNTNYAQKFQGRVTMTRDTSTSTVYMELSSLRSEDTAVYYCARAEYSYGFDYWGQGTLVTVSS
VL: B1 VL with S30H, S91T, Y92S, N93S, V94F, P96Y, V104L
notes: scFv
B6: Polypeptide No. 67 (scFv, V domains shown)
VH: QVQLVQSGAEVKKPGASVKVSCKASGDTFTRHYVHWVRQAPGQGLEWMGRVNPRDGRTNSAQKFQGRVTMTRDTSTSTVYMELSSLRSEDTAVYYCAKDMFPTVTGTYYYYGMDVWGQGTTVTVSS
VL: B1 VL with N31S, S91A, Y92S, N93G, V94F, P96Y, K103R, V104L
notes: scFv
B7: Polypeptide No. 70 (scFv, V domains shown)
VH: EVQLLESGGGLVQPGGSLRLSCAASGMSVTSNHMSWVRQAPGKGLEWVSSIYPDGKTYYADSVKGRFTISRDNSKNTLYLQMNSLRAEDTAVYYCARDEEDWFDPWGQGTLVTVSS
VL: B1 VL with R24Q, G28S, Y32W, D50A, N53T, E55Q, T56S, N93S, V94T, P96W
notes: scFv
B8: Polypeptide No. 74 (scFv, V domains shown)
VH: QVQLVQSGAEVKKPGSSVKVSCKASGYTFTKYEINWVRQAPGQGLEWMGGIIPIFGTANYAQKFQGRVTITADESTSTAYMELSSLRSEDTAVYYCARGSGWYTPLFDYWGQGTLVTVSS
VL: B1 VL with Y32N, A34N, N53Y, N93S, V94A, P96L
notes: scFv
B9: Polypeptide No. 64 (scFv, V domains shown)
VH: QVQLVQSGAEVKKPGASVKVSCKASGYTFTDYYMHWVRQAPGQGLEWMGLIDPSGGSTNSLQKFQGRVTMTRDTSTSTVYMELSSLRSEDTAVYYCARDVGFGELSFDIWGQGTTVTVSS
VL: DIVMTQSPLSLPVTPGEPASISCRSSQSLLHSNGYNYLDWYLQKPGQSPQLLIYAASTLQSGVPDRFSGSGSGTDFTLKISRVEAEDVGVYYCMQGTHWPPTFGPGTKVDIKR
notes: scFv
B10: Polypeptide No. 65 (scFv, V domains shown)
VH: QVQLVQSGAEVKKPGASVKVSCKASGYTFTGYYMHWVRQAPGQGLEWMGWINPNSGGTNYAQKFQGRVTMTRDTSTSTVYMELSSLRSEDTAVYYCAREIGGYDNYYYYGMDVWGQGTTVTVSS
VL: DIQMTQSPSSLSASVGDRVTITCRASQSIGTYLNWYQQKPGKAPKLLIYAASSLQSGVPSRFSGSGSGTDFTLTISSLQPEDFATYYCQQSYTDPWTFGQGTKVEIKR
notes: scFv
B11: Polypeptide No. 68 (scFv, V domains shown)
VH: QVQLVQSGAEVKKPGASVKVSCKASGYTFSSYDINWVRQAPGQGLEWVGWINPRNGGTDYAQKFQGRVTMTRDTSTSTVYMELSSLRSEDTAVYYCARHRWELDSFDYWGQGTLVTVSS
VL: B10 VL with G30S, T31N, A51T, S91G, T93N, D94I, W96F, V104L
notes: scFv
B12: Polypeptide No. 63 (scFv, V domains shown)
VH: QVQLVQSGAEVKKPGASVKVSCKASGYTFTGYYVHWVRQAPGQGLEWMGVINPSGGGSPSYAQKFQGRVTMTRDTSTSTVYMELSSLRSEDTAVYYCARDRSDVDYGMDVWGQGTTVTVSS
VL: DIQMTQSPSSLSASVGDRVTITCQASQDISNYLNWYQQKPGKAPKLLIYDASNLQSGVPSRFSGSGSGTDFTLTISSLQPEDFATYYCLQHNSYPLTFGGGTKVEIKR
notes: scFv
B13: Polypeptide No. 72 (scFv, V domains shown)
VH: QVQLVQSGAEVKKPGASVKVSCKASGGTFSNYAISWVRQAPGQGLEWMGWISAYNGNSDYAQNLQGRVTMTRDTSTSTVYMELSSLRSEDTAVYYCAIGDYFDYWGQGTLVTVSS
VL: B12 VL with Q27E, S30N, N31K, Q55E, S56T, L89Q, H91A, Y94F, G100Q
notes: scFv
B14: Polypeptide No. 71 (scFv, V domains shown)
VH: EVQLLESGGGLVQPGGSLRLSCAASGFTFSNHYMSWVRQAPGKGLEWVAVIWPDGSKEYYADSVKGRFTISRDNSKNTLYLQMNSLRAEDTAVYYCAREDYYGSGMDYWGQGTLVTVSS
VL: B12 VL with D50G, N53T, L89Q, H91Y, N92D, L96P
notes: scFv
B15: Polypeptide No. 60 (scFv, V domains shown)
VH: QVQLVQSGAEVKKPGSSVKVSCKASGGTFSSYAISWVRQAPGQGLEWMGGIIPMFGTANYAQKFQGRVTITADESTSTAYMELSSLRSEDTAVYYCARDLGYSNAGGTLHYWGQGTLVTVSS
VL: EIVMTQSPATLSVSPGERATLSCRASQSIGTYLAWYQQKPGQAPRLLIYDASSRATGIPARFSGSGSGTEFTLTISSLQSEDFAVYYCQQYKSYPLTFGGGTKVEIKR
notes: scFv

Substitutions are numbered along the chain they refer to.
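Also: Bio-layer interferometry with scFvs captured on biosensors via anti-V5 antibody, exposed 2 min to CLL-1 K244 or Q244 protein, 5 min dissociation, scored as binding, no binding or ambiguous.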

The target in the first test is T1, huCLL1-Q244-Avi-Tev-His. The experiment in a line: BLI.
Description: (§1) Discovered scFvs were analyzed for binding to huCD33-R69-His or huCD33-G69-Fc recombinant proteins (for anti-CD33 scFvs; for CLL-1 scFvs, huCLL1-K244-Avi-Tev-His or huCLL1-Q244-Avi-Tev-His were used; for FLT3, huFLT3-T227-His or huFLT3-M227-Fc were used) using BLI on a ForteBio Octet HTX instrument. Streptavidin-coated biosensors were loaded with biotinylated anti-V5 tag monoclonal antibody for 5 min and were then quenched and blocked with 20 μM amine-PEG2-Biotin for 5 min. scFvs were captured on biosensors from scFv clone periplasmic extracts. huCD33 (or huCLL-1, or huFLT3) proteins were then associated with the captured scFvs for 2 minutes, followed by dissociation with buffer (1×HBST [10 mM HEPES pH 7.4, 150 mM NaCl, 0.05% Tween-20], 1 g/L BSA) for 5 minutes. […] Data was fitted with 1:1 Langmuir equation and off-rate values were reported.
(§2) Analogous methods were used to assess selectivity of binding of polypeptides to CLL-1 K244 or CLL-1 Q244.
B1: the binding result was “no binding”.
In the case of B2, the binding result was “no binding”.
In the case of B3, the binding result is reported as “binds”.
As for B4, the binding result is given as “no binding”.
With B5, the binding result was “no binding”.
Still for that read-out and setting: with B6 the entry was “binds”; with B7, “binds”; with B8, “binds”.
Still for that read-out and setting: with B9 the entry was “no binding”; with B10, “no binding”.
As to B11, the binding result is reported as “binds”.
On to B12, for which the binding result was “no binding”.
The same measure, in the same setting: with B13 the entry was “binds”; with B14, “binds”.
Still for that read-out and setting: with B15 the entry was “no binding”.

The target of the next test is T2, huCLL1-K244-Avi-Tev-His. Briefly: BLI. A general note: Biolayer interferometry detects binding as a change in optical thickness at a sensor tip.
Description: as §1, §2
B1: the binding result is reported as “binds”.
Still for that read-out and setting: with B2 the entry was “binds”.
The same measure, in the same setting: with B3 the entry was “no binding”.
As to B4, the binding result is recorded as “binds”.
With B5, the binding result is listed as “binds”.
As for B6, the binding result is on record as “no binding”.
On the same count and under the same terms, with B7 the entry was “no binding”; with B8, “no binding”; with B9, “binds”.
Still for that read-out and setting: with B10 the entry was “binds”; with B11, “no binding”.
In the case of B12, the binding result was “binds”.
Regarding B13, the binding result is on record as “no binding”.
As for B14, the binding result is on record as “no binding”.
Take B15: the binding result was “binds”.
